Assays:
[1] = tested on: MCF-7 human breast adenocarcinoma cell line; test: SRB cell proliferation (cytotoxicity) assay, MCF-7
From the text: (§1) The XLSTAT software was used to determine the IC50, TGI and LC50 values using the four-parameter logistic curve equation.

[2] = tested on: DU-145 human prostate carcinoma cell line; test: SRB cell proliferation (cytotoxicity) assay, DU-145
From the text: as §1

[3] = tested on: OVCAR-3 human ovarian adenocarcinoma cell line; test: SRB cell proliferation (cytotoxicity) assay, OVCAR-3
From the text: as §1

[4] = tested on: HCT 116 human colorectal carcinoma; test: SRB cell proliferation (cytotoxicity) assay, HCT 116
From the text: as §1

alkylated Gal1 = biological target: T1, alkylated Gal1 (Homo sapiens, UniProt P09382); test: Hemagglutination inhibition assay, alkylated Gal1; type: cell-based; settings: alkylated Gal1 5 μM
T1 construct: 42; made in house; host or cells: E. coli strain M-15
T1 sequence (P09382 2-135): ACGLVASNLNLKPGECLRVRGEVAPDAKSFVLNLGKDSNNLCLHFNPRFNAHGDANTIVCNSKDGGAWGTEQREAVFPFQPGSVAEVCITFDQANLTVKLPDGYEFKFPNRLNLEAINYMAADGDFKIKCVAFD
Method: FIG. 15 illustrates the hemagglutination test with constant protein concentration at 5 μM and titration of aptamers SEQ ID NO.: 4 and SEQ ID NO.: 9. (a) Titration with aptamer 4. The hemagglutination of native Gal1 was inhibited from the concentration of 10 μM of this compound.
(§2) Hemagglutination assay was adopted to assess the capacity of SEQ ID NO.: 4 in inhibiting the lectin cross-linking aggregation of red blood cells (RBC), as previously described. Briefly, using a 96-well microplates appropriate amounts of 5 μM hGal1 were blended with 50 μL of aptamer in an increasing concentrations manner (0-40 μM) in PBS 1× buffer (pH 7.4). Following, 50 μL of 3% purified type B+ RBC in PBS. After 2 h of room temperature incubation, the plate was photographed and the hemagglutination area was estimated by area calculator Sketchandcalc™ and the results were expressed as relative agglutination.
It was observed that treating hGal-1 with Iodoacetamide, which covalently binds the acetamide group in all solvent accessible cysteines sulfhydryl side chain, abolishes the anti-hemagglutinating activity of the aptamer. According to the proposed binding mode, this happens because Cysteines 2, 88 and 130 interact directly with the aptamer and adding the acetamide group to their side chains would disrupt specific aptamer-protein interactions (FIG. 13C).

[5] = biological target: T2, native human galectin-1 (hGal1) (Homo sapiens, UniProt P09382); test: Thermofluor thermal shift assay (TSA), native galectin-1; type: binding; settings: 5 μM protein
T2 construct: 42; made in house; host or cells: E. coli strain M-15
T2 sequence (P09382 2-135): as above
Method: In an attempt to screen among the selected aptamers that better interact with hGal1, differential scanning fluorimetry (Termofluor) was used to characterize their binding to its target. Among all the selected aptamers, SEQ ID NO.: 4 seemed to have a more intense effect on hGal1 thermoshift and so was chosen for further analysis. The selected aptamer had its interaction evaluated with native and alkylated galectin-1. […] The respective thermal displacements were evaluated as a function of an increasing concentration of SEQ ID NO.: 4 (FIG. 1).
Thermofluor experiments were performed on an Mx3005 RT-PCR (Agilent Technologies) using the SYPRO® Orange dye (492/610 nm) (Invitrogen) as fluorescent probe. The purified (native and alkylated) protein samples were incubated for 30 min with increasing concentration of the molecules of interest, centrifuged, and submitted to the thermal denaturation assay, totalizing four distinct experiments. In a 96-well plate (Agilent Technologies) 20 μl of the reaction containing 5 μM of each protein in buffer PBS 1× and 5× SYPRO® Orange were heated from 25° C. to 95° C. at a rate of 1° C./min. The experimental result was processed as in the protocol previously described and the melting temperature was obtained using GraphPad Prism software (www.graphpad.com).

[6] = tested on: SK-BR-3 human breast adenocarcinoma; test: SRB cell proliferation (cytotoxicity) assay, SK-BR-3
From the text: as §1

[7] = biological target: T3, hGal1-induced hemagglutination of red blood cells (Homo sapiens, UniProt P09382); test: Hemagglutination inhibition assay, native hGal1; type: cell-based; settings: native Gal1 5 μM
T3 construct: 42; made in house; host or cells: E. coli strain M-15
T3 sequence (P09382 2-135): as above
Method: Hemagglutination Inhibition Assay
as §2

[8] = tested on: A-375 human malignant melanoma; test: SRB cell proliferation (cytotoxicity) assay, A-375
From the text: as §1

[9] = tested on: HT-29 human colorectal adenocarcinoma; test: SRB cell proliferation (cytotoxicity) assay, HT-29
From the text: as §1

[10] = tested on: NHF human foreskin skin fibroblasts; test: in vitro
From the text: as §1

B1: AGCTGACACAGCAGGTTGGTGCCCAAAAGAGCCAATCCACGACGACACCCCAAAAACCATATCACGAATACCCGAGTCGAGCAATCTCGAAAT (nucleic acid)
DNA: AGCTGACACAGCAGGTTGGTGCCCAAAAGAGCCAATCCACGACGACACCCCAAAAACCATATCACGAATACCCGAGTCGAGCAATCTCGAAAT
modifications: chemistry not given here
Relative viability (%) of test items ([1]; 0.781 µM): 103.8% | Relative viability (%) of test items ([1]; 1.562 µM): 95.5% | Relative viability (%) of test items ([1]; 3.125 µM): 97.8% | Relative viability (%) of test items ([1]; 6.25 µM): 84.8% | Relative viability (%) of test items ([1]; 12.5 µM): 73.6% | Relative viability (%) of test items ([1]; 25 µM): 55.1% | Relative viability (%) of test items ([1]; 50 µM): 37.5% | Relative viability (%) of test items ([1]; 100 µM): −19.5% | TGI: Concentration for total inhibition of cell growth ([1]; MCF-7): 80.767 µM | IC50 ([1]; read-out: IC50: Concentration to inhibit 50% of cell growth, MCF-7): 32 µM | CC50 ([1]; read-out: LC50: Concentration for 50% cell death, MCF-7): > 100 µM | Relative viability (%) of test items ([2]; 0.781 µM): 106.1% | Relative viability (%) of test items ([2]; 1.562 µM): 92.3% | Relative viability (%) of test items ([2]; 3.125 µM): 106.4% | Relative viability (%) of test items ([2]; 6.25 µM): 103.6% | Relative viability (%) of test items ([2]; 12.5 µM): 98.7% | Relative viability (%) of test items ([2]; 25 µM): 82.5% | Relative viability (%) of test items ([2]; 50 µM): 68.0% | Relative viability (%) of test items ([2]; 100 µM): 36.6% | TGI: Concentration for total inhibition of cell growth ([2]; DU-145): >100 µM | IC50 ([2]; read-out: IC50: Concentration to inhibit 50% of cell growth, DU-145): 74 µM | Relative viability (%) of test items ([3]; 0.781 µM): 105.9% | Relative viability (%) of test items ([3]; 1.562 µM): 99.6% | Relative viability (%) of test items ([3]; 3.125 µM): 93.9% | Relative viability (%) of test items ([3]; 6.25 µM): 84.3% | Relative viability (%) of test items ([3]; 12.5 µM): 50.2% | Relative viability (%) of test items ([3]; 25 µM): 23.4% | Relative viability (%) of test items ([3]; 50 µM): 8.1% | Relative viability (%) of test items ([3]; 100 µM): −62.0% | TGI: Concentration for total inhibition of cell growth ([3]; OVCAR-3): 45.952 µM | IC50 ([3]; read-out: IC50: Concentration to inhibit 50% of cell growth, OVCAR-3): 16.1 µM | CC50 ([3]; read-out: LC50: Concentration for 50% cell death, OVCAR-3): 91.4 µM | Relative cell viability (%) of test items ([4]; 0.781 µM): 99.9% | Relative cell viability (%) of test items ([4]; 1.562 µM): 94.6% | Relative cell viability (%) of test items ([4]; 3.125 µM): 87.9% | Relative cell viability (%) of test items ([4]; 6.25 µM): 88.9% | Relative cell viability (%) of test items ([4]; 12.5 µM): 72.2% | Relative cell viability (%) of test items ([4]; 25 µM): 33.3% | Relative cell viability (%) of test items ([4]; 50 µM): 11.5% | Relative cell viability (%) of test items ([4]; 100 µM): −19.5% | TGI: Concentration for total inhibition of cell growth ([4]; HCT 116): 58.519 µM | IC50 ([4]; read-out: IC50: Concentration to inhibit 50% of cell growth, HCT 116): 20.1 µM | effect on hemagglutination by alkylated Gal1 (alkylated Gal1): no effect | variation of denaturation temperature (Tm) of native hGal1 [5]: greater variation | Relative cell viability (%) of test items ([6]; 0.781 µM): 107.5% | Relative cell viability (%) of test items ([6]; 1.562 µM): 99.9% | Relative cell viability (%) of test items ([6]; 3.125 µM): 111.1% | Relative cell viability (%) of test items ([6]; 6.25 µM): 109.1% | Relative cell viability (%) of test items ([6]; 12.5 µM): 98.5% | Relative cell viability (%) of test items ([6]; 25 µM): 48.7% | Relative cell viability (%) of test items ([6]; 50 µM): 3.1% | Relative cell viability (%) of test items ([6]; 100 µM): −70.0% | TGI: Concentration for total inhibition of cell growth ([6]; SK-BR-3): 49.017 µM | IC50 ([6]; read-out: IC50: Concentration to inhibit 50% of cell growth, SK-BR-3): 28.3 µM | CC50 ([6]; read-out: LC50: Concentration for 50% cell death, SK-BR-3): 80.7 µM | concentration from which hemagglutination was inhibited [7]: 10 µM | inhibitory effect on galectin-induced hemagglutination [7]: better effect | Relative cell viability (%) of test items ([8]; 0.781 µM): 121.2% | Relative cell viability (%) of test items ([8]; 1.562 µM): 107.1% | Relative cell viability (%) of test items ([8]; 3.125 µM): 107.0% | Relative cell viability (%) of test items ([8]; 6.25 µM): 114.0% | Relative cell viability (%) of test items ([8]; 12.5 µM): 97.7% | Relative cell viability (%) of test items ([8]; 25 µM): 92.5% | Relative cell viability (%) of test items ([8]; 50 µM): 70.6% | Relative cell viability (%) of test items ([8]; 100 µM): −19.4% | TGI: Concentration for total inhibition of cell growth ([8]; A-375): 90.397 µM | IC50 ([8]; read-out: IC50: Concentration to inhibit 50% of cell growth, A-375): 61.1 µM | CC50 ([8]; read-out: LC50: Concentration for 50% cell death, A-375): > 100 µM | Relative cell viability (%) of test items ([9]; 0.781 µM): 92.0% | Relative cell viability (%) of test items ([9]; 1.562 µM): 95.9% | Relative cell viability (%) of test items ([9]; 3.125 µM): 97.2% | Relative cell viability (%) of test items ([9]; 6.25 µM): 92.5% | Relative cell viability (%) of test items ([9]; 12.5 µM): 83.1% | Relative cell viability (%) of test items ([9]; 25 µM): 32.7% | Relative cell viability (%) of test items ([9]; 50 µM): 14.4% | Relative cell viability (%) of test items ([9]; 100 µM): 0.2% | IC50 ([9]; read-out: IC50: Concentration to inhibit 50% of cell growth, HT-29): 20.4 µM | Relative viability (%) of test items ([10]; 0.781 µM): 104.0% | Relative viability (%) of test items ([10]; 1.562 µM): 96.2% | Relative viability (%) of test items ([10]; 3.125 µM): 95.7% | Relative viability (%) of test items ([10]; 6.25 µM): 92.7% | Relative viability (%) of test items ([10]; 12.5 µM): 114.0% | Relative viability (%) of test items ([10]; 25 µM): 84.6% | Relative viability (%) of test items ([10]; 50 µM): 44.6% | Relative viability (%) of test items ([10]; 100 µM): −12.8% | TGI: Concentration for total inhibition of cell growth ([10]; NHF): 83.697 µM | IC50 ([10]; read-out: IC50: Concentration to inhibit 50% of cell growth, NHF): 46.9 µM
